Data from US20240132581A1 (BEIJING WISDOMAB BIOTECHNOLOGY, published 2024).

T1: extracellular domain of human TSLP receptor (hTSLPR-ECD) (human (Homo sapiens), UniProt Q9HC73 23-231)
T1 sequence: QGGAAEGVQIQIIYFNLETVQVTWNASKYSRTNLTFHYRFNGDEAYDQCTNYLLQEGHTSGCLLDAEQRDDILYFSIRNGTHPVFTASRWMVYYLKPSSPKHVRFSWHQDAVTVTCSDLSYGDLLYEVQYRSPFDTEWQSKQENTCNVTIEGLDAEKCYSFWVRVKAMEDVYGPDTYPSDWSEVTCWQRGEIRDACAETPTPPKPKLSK

B1: H3B10-M1+L3E8-M7 (humanized monoclonal antibody) (antibody, V domains shown)
VH: QVTLKESGPVLVKPTETLTLTCTVSGFSLSSYDISWIRQPPGKALEWLGVIWSEGGTSYSTSLKSRLTISKDTSKSQVVLTMTNMDPVDTATYYCARDSDDGYLNWGQGTLVTVSS
VL: EIVMTQSPATLSVSPGERATLSCSVSSSISSSNLHWYQQKPGQAPRPWIYGTSNLASGIPARFSGSGSGTEFTLTISSVQAEDFAVYYCQQWSSYPLTFGQGTKLEIK
notes: Expressed as a whole antibody
B2: H1A10+L3E8-M7 (humanized monoclonal antibody) (antibody, V domains shown)
VH: QVQLVQSGAEVKKPGASVKVSCKASGYAFSNYWMNWVRQAPGQGLEWMGQIFPGDSDTDYDQKFQGRVTMTRDTSTSTVYMELSSLRSEDTAVYYCARAGYYRGYYAMDYWGQGTTVTVSS
VL: B1 VL
notes: Expressed as a whole antibody
B3: hTSLP1-m-mFc (Fc fusion)
chain: YDFTNCDFEKIKAAYLSTISKDLITYMSGTKSTEFNNTVSCSNRPHCLTEIQSLTFNPTAGCASLAKEMFAMKTKAALAIWCPGYSETQINATQAMKKVTTNKCLEQVSQLQGLWRRFNRPLLKQQPRGPTIKPCPPCKCPAPNLLGGPSVFIFPPKIKDVLMISLSPIVTCVVVDVSEDDPDVQISWFVNNVEVHTAQTQTHREDYNSTLRVVSALPIQHQDWMSGKEFKCKVNNKDLPAPIERTISKPKGSVRAPQVYVLPPPEEEMTKKQVTLTCMVTDFMPEDIYVEWTNNGKTELNYKNTEPVLDSDGSYFMYSKLRVEKKNWVERNSYSCSVVHEGLHNHHTTKSFSRTPGK
notes: also called recombinant protein hTSLP1-m-mFc
B4: H1A10×H3B10-M1+L3E8-M7 BsAb (anti-human TSLP bispecific antibody) (bispecific antibody, human IgG1, kappa)
heavy 1: QVQLVQSGAEVKKPGASVKVSCKASGYAFSNYWMNWVRQAPGQGLEWMGQIFPGDSDTDYDQKFQGRVTMTRDTSTSTVYMELSSLRSEDTAVYYCARAGYYRGYYAMDYWGQGTTVTVSSASTKGPSVFPLAPSSKSTSGGTAALGCLVKDYFPEPVTVSWNSGALTSGVHTFPAVLQSSGLYSLSSVVTVPSSSLGTQTYICNVNHKPSNTKVDKRVEPKSCDKTHTCPPCPAPEFEGGPSVFLFPPKPKDTLMISRTPEVTCVVVDVSHEDPEVKFNWYVDGVEVHNAKTKPREEQYNSTYRVVSVLTVLHQDWLNGKEYKCKVSNKALPASIEKTISKAKGQPREPQVYTLPPCREEMTKNQVSLWCLVKGFYPSDIAVEWESNGQPENNYKTTPPVLDSDGSFFLYSKLTVDKSRWQQGNVFSCSVMHEALHNHYTQKSLSLSPGK
heavy 2: QVTLKESGPVLVKPTETLTLTCTVSGFSLSSYDISWIRQPPGKALEWLGVIWSEGGTSYSTSLKSRLTISKDTSKSQVVLTMTNMDPVDTATYYCARDSDDGYLNWGQGTLVTVSSASTKGPSVFPLAPSSKSTSEGTAALGCLVKDYFPEPVTVSWNSGALTSGVHTFPAVLQSSGLYSLSSVVTVPSSSLGTQTYICNVDHKPSNTKVDKTVEPKSCDKTHTCPPCPAPEFEGGPSVFLFPPKPKDTLMISRTPEVTCVVVDVSQEDPEVQFNWYVDGVEVHNAKTKPREEQYNSTYRVVSVLTVLHQDWLNGKEYKCKVSNKALPASIEKTISKAKGQPREPQVCTLPPSQEEMTKNQVSLSCAVKGFYPSDIAVEWESNGQPENNYKTTPPVLDSDGSFFLVSKLTVDKSRWQEGNVFSCSVMHEALHNHYTQKSLSLSPGK
light: EIVMTQSPATLSVSPGERATLSCSVSSSISSSNLHWYQQKPGQAPRPWIYGTSNLASGIPARFSGSGSGTEFTLTISSVQAEDFAVYYCQQWSSYPLTFGQGTKLEIKRTVAAPSVFIFPPSDEQLKSGTASVVCLLNNFYPREAKVQWKVDNALQSGNSQESVTEQDSKDSTYSLSSTLTLSKADYEKHKVYACEVTHQGLSSPVTKSFNRGEC
notes: also called bispecific antibody H1A10×H3B10-M1+L3E8-M7; bispecific antibody H1A10×H3B10-M1

Columns and labels:
[1] = target: T2, hTSLP:hTSLPR complex (hTSLP1-m-mFc with hTSLPR-ECD bound, formed on the chip) (human (Homo sapiens), UniProt Q9HC73 23-231); assay: SPR (Biacore T200): chip surface with hTSLP1-m-mFc captured by anti-mFc antibody and loaded with hTSLPR-ECD, antibody at 50 µg/mL injected before hIL-7Rα-ECD [continued) B]
T2 construct: also called TSLP:TSLPR complex
Protocol: (§1) Two molecules were sequentially injected using a double injection mode of Biacore T200. […] Each of the molecules was injected for 60 s. The surface of the chip was regenerated at the end of the injection by injecting 10 mM glycine-HCl (pH 1.7) at 10 μL/min for 30 s. The Y-axis reporting points for the double baselines were zeroed using Biacore T200 evaluation software version 3.0, and then the RU values were plotted against times using GraphPad software.

hTSLP1-m-mFc [2] = target: B3; assay: SPR (Biacore T200): hTSLP1-m-mFc captured (about 80 RU) by anti-mFc antibody on CM5, antibody at 50 µg/mL [continued) C]
Protocol: (§2) The recombinant protein hTSLP1-m-mFc was diluted to 2 μg/mL with 1×HBS-EP buffer, and was injected at 10 μL/min for 12 s. Approximately 80 RU of hTSLP1-m-mFc was captured by the anti-mFc antibody. […] Two molecules were sequentially injected using a double injection mode of Biacore T200. […] Each of the molecules was injected for 90 s. The surface of the chip was regenerated at the end of the injection by injecting 10 mM glycine-HCl (pH 1.7) at 10 μL/min for 30 s. The Y-axis reporting points for the double baselines were zeroed using Biacore T200 evaluation software version 3.0, and then the RU values were plotted against times using GraphPad software.

[3] = target: T2, hTSLP:hTSLPR complex (hTSLP1-m-mFc with …); assay: SPR (Biacore T200): chip surface with hTSLP1-m-mFc captured by anti-mFc antibody and loaded with hTSLPR-ECD, antibody at 50 µg/mL injected before hIL-7Rα-ECD [continued) C]
Protocol: as §1

hTSLP1-m-mFc [4] = target: B3; assay: SPR (Biacore T200): hTSLP1-m-mFc captured (about 80 RU) by anti-mFc antibody on CM5, antibody at 50 µg/mL [continued) D]
Protocol: as §2

[5] = target: T1, extracellular domain of human TSLP …; assay: SPR (Biacore T200): hTSLP1-m-mFc captured (about 80 RU) by anti-mFc antibody on CM5, buffer then hTSLPR-ECD at 100 µg/mL
Protocol: as §2

[6] = target: T2, hTSLP:hTSLPR complex (hTSLP1-m-mFc with …); assay: SPR (Biacore T200): chip surface with hTSLP1-m-mFc captured by anti-mFc antibody and loaded with hTSLPR-ECD, antibody at 50 µg/mL injected before hIL-7Rα-ECD [continued) D]
Protocol: as §1

[7] = target: cynomolgus monkey TSLP (mfTSLP) (cynomolgus monkey (Macaca fascicularis)); assay: SPR Biacore X100 as in Example 3.1, antibody captured, mfTSLP as analyte
hTSLP1-m-mFc [8] = target: B3; assay: SPR (Biacore T200): hTSLP1-m-mFc captured (about 80 RU) by anti-mFc antibody on CM5, antibody at 50 µg/mL [continued) E]
Protocol: as §2

Binder: B1
binding result [1]: binds
binding result (hTSLP1-m-mFc [2]): binds

Binder: B2
binding result [3]: binds
binding result (hTSLP1-m-mFc [4]): binds

Binder: B3
binding result [5]: binds

Binder: B4
binding result [6]: binds
Kd [7]: 2.75 nM
binding result (hTSLP1-m-mFc [8]): binds
